Data published in paper PMC3017539, “Crystal Structure of Escherichia coli CusC, the Outer Membrane Component of a Heavy Metal Efflux Pump” (PLoS ONE, 2011).

Target: the molecule itself
Assay: SEC; gel filtration (Superdex-200) in 10 mM Na-acetate/50 mM NaCl/10% glycerol/0.05% DDM pH 5; oligomer judged from the elution position

B1: CusC, the outer membrane component of the Cus heavy metal efflux pump (natural protein, E. coli, UniProt P77211 18-457, looked up)
chain: CSLAPDYQRPAMPVPQQFSLSQNGLVNAADNYQNAGWRTFFVDNQVKTLISEALVNNRDLRMATLKVQEARAQYRLTDADRYPQLNGEGSGSWSGNLKGNTATTREFSTGLNASFDLDFFGRLKNMSEAERQNYLATEEAQRAVHILLVSNVAQSYFNQQLAYAQLQIAEETLRNYQQSYAFVEKQLLTGSSNVLALEQARGVIESTRSDIAKRQGELAQANNALQLLLGSYGKLPQAQTVNSDSLQSVKLPAGLSSQILLQRPDIMEAEHALMAANANIGAARAAFFPSISLTSGISTASSDLSSLFNASSGMWNFIPKIEIPIFNAGRNQANLDIAEIRQQQSVVNYEQKIQNAFKEVADALALRQSLNDQISAQQRYLASLQITLQRARALYQHGAVSYLEVLDAERSLFATRQTLLDLNYARQVNEISLYTALGGG
modifications: three partial acyl chains attached to Cys1 (most likely triacylated at the N-terminal cysteine with N-acyl and S-diacylglycerol functions)
notes: CusC of Escherichia coli, gene for the full-length protein amplified from DH5alpha cells; residues 21-31 disordered in the crystal. numbers count on: the mature protein; Hexa-histidine tag introduced after the C-terminal residue; no cleavage is described; also called outer membrane factor (OMF) protein CusC; source: E. coli C43 (DE3), over-expressed, purified from membranes (nickel column, …)
  stoichiometry N: 3
